Laboratory results from the supplement of paper PMC5998384.

Key:
HeLa Kyoto [1] = assay: solubility in G1/S (NP-40 vs SDS abundance) (log2 ratio); higher = more soluble; settings: cell cycle stage: G1/S
HeLa Kyoto [2] = assay: melting temperature (median over replicates), in situ; higher = more thermally stable
HeLa Kyoto [3] = assay: solubility change mitosis vs G1/S (difference of NP-40 vs SDS log2 ratios) (log2 ratio difference); higher = more soluble in mitosis
HeLa Kyoto [4] = assay: thermal stability score vs G1/S (z-score of summed log2 fold changes over temperatures); higher = more thermally stable than in G1/S
[5] = cell cycle stage: early G1 (4.5 h after nocodazole release)
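For melting temperature (median over replicates), in situ in this document: HeLa Kyoto cells synchronized by double thymidine or nocodazole block, proteins quantified by TMT10plex mass spectrometry, three independent biological replicates.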
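For solubility change mitosis vs G1/S (difference of NP-40 vs SDS log2 ratios) in this document: synchronized HeLa Kyoto cells (double thymidine block for G1/S, nocodazole release for mitosis), protein amounts in NP-40 versus SDS lysates quantified by mass spectrometry, three biological replicates.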
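For solubility in G1/S (NP-40 vs SDS abundance) in this document: HeLa Kyoto cells arrested at G1/S by double thymidine block, proteins quantified by TMT10plex mass spectrometry in mild NP-40 versus SDS extracts, three biological replicates.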
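For thermal stability score vs G1/S (z-score of summed log2 fold changes over temperatures) in this document: synchronized HeLa Kyoto cells, proteins quantified by TMT10plex mass spectrometry, three biological replicates, mitosis taken 0.5 h after nocodazole release, G1/S directly after double thymidine block.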

Row | Sequence | solubility in G1/S (log2) (HeLa Kyoto [1]) | melting temperature (HeLa Kyoto [2]; cell cycle stage: G1/S) | melting temperature (HeLa Kyoto [2]; cell cycle stage: mitosis) | solubility change mitosis (log2) (HeLa Kyoto [3]) | thermal stability score (HeLa Kyoto [4]; [5]) | thermal stability score (HeLa Kyoto [4]; cell cycle stage: mitosis)
1 | MAAPRVFPLSCAVQQYAWGKMGSNSEVARLLASSDPLAQIAEDKPYAELWMGTHPRGDAKILDNRISQKTLSQWIAENQDSLGSKVKDTFNGNLPFLFKVLSVETPLSIQAHPNKELAEKLHLQAPQHYPDANHKPEMAIALTPFQGLCGFRPVEEIVTFLKKVPEFQFLIGDEAATHLKQTMSHDSQAVASSLQSCFSHLMKSEKKVVVEQLNLLVKRISQQAAAGNNMEDIFGELLLQLHQQYPGDIGCFAIYFLNLLTLKPGEAMFLEANVPHAYLKGDCVECMACSDNTVRAGLTPKFIDVPTLCEMLSYTPSSSKDRLFLPTRSQEDPYLSIYDPPVPDFTIMKTEVPGSVTEYKVLALDSASILLMVQGTVIASTPTTQTPIPLQRGGVLFIGANESVSLKLTEPKDLLIFRACCLL [MPI] | 0.389 | 50.7 °C | 50.4 °C | -0.154 | -0.708 | -0.365
2 | MAAPSGGVNCEEFAEFQELLKVMRTIDDRIVHELNTTVPTASFAGKIDASQTCKQLYESLMAAHASRDRVIKNCIAQTSAVVKNLREEREKNLDDLTLLKQLRKEQTKLKWMQSELNVEEVVNDRSWKVFNERCRIHFKPPKNE [CCDC58] | 0.6 | 53.3 °C | 52.6 °C | 0.251 | -0.935 | -0.43
3 | MAAPSWRGARLVQSVLRVWQVGPHVARERVIPFSSLLGFQRRCVSCVAGSAFSGPRLASASRSNGQGSALDHFLGFSQPDSSVTPCVPAVSMNRDEQDVLLVHHPDMPENSRVLRVVLLGAPNAGKSTLSNQLLGRKVFPVSRKVHTTRCQALGVITEKETQVILLDTPGIISPGKQKRHHLELSLLEDPWKSMESADLVVVLVDVSDKWTRNQLSPQLLRCLTKYSQIPSVLVMNKVDCLKQKSVLLELTAALTEGVVNGKKLKMRQAFHSHPGTHCPSPAVKDPNTQSVGNPQRIGWPHFKEIFMLSALSQEDVKTLKQYLLTQAQPGPWEYHSAVLTSQTPEEICANIIREKLLEHLPQEVPYNVQQKTAVWEEGPGGELVIQQKLLVPKESYVKLLIGPKGHVISQIAQEAGHDLMDIFLCDVDIRLSVKLLK [ERAL1] | 0.33 | 51.2 °C | 50.9 °C | -0.061 | -1.87 | -1.48
4 | MAAQKINEGLEHLAKAEKYLKTGFLKWKPDYDSAASEYGKAAVAFKNAKQFEQAKDACLREAVAHENNRALFHAAKAYEQAGMMLKEMQKLPEAVQLIEKASMMYLENGTPDTAAMALERAGKLIENVDPEKAVQLYQQTANVFENEERLRQAVELLGKASRLLVRGRRFDEAALSIQKEKNIYKEIENYPTCYKKTIAQVLVHLHRNDYVAAERCVRESYSIPGFNGSEDCAALEQLLEGYDQQDQDQVSDVCNSPLFKYMDNDYAKLGLSLVVPGGGIKKKSPATPQAKPDGVTATAADEEEDEYSGGLC [NAPG] | 0.528 | 49.6 °C | 49.9 °C | 0.178 | -0.512 | 0.117
5 | MAARLVSRCGAVRAAPHSGPLVSWRRWSGASTDTVYDVVVSGGGLVGAAMACALGYDIHFHDKKILLLEAGPKKVLEKLSETYSNRVSSISPGSATLLSSFGAWDHICNMRYRAFRRMQVWDACSEALIMFDKDNLDDMGYIVENDVIMHALTKQLEAVSDRVTVLYRSKAIRYTWPCPFPMADSSPWVHITLGDGSTFQTKLLIGADGHNSGVRQAVGIQNVSWNYDQSAVVATLHLSEATENNVAWQRFLPSGPIALLPLSDTLSSLVWSTSHEHAAELVSMDEEKFVDAVNSAFWSDADHTDFIDTAGAMLQYAVSLLKPTKVSARQLPPSVARVDAKSRVLFPLGLGHAAEYVRPRVALIGDAAHRVHPLAGQGVNMGFGDISSLAHHLSTAAFNGKDLGSVSHLTGYETERQRHNTALLAATDLLKRLYSTSASPLVLLRTWGLQATNAVSPLKEQIMAFASK [COQ6] | -0.0254 | 54.8 °C | 55.1 °C | -0.0137 | 1.7 | 2.05
